The results in this text go back to paper PMC11473951.

What all share (experiment): SPR
For assay [1], the target named is human monoclonal antibody R5.016 (human).
Assay [2] deals with human monoclonal antibody R5.034 (human).
The target of assay [3] is monoclonal antibody 9AD4 (mouse).

pKd: −log10 of the molar value.

monoclonal antibody 9AD4 (mouse), sequence (light, as listed by the source, chain 2 of 2, other chains not shown): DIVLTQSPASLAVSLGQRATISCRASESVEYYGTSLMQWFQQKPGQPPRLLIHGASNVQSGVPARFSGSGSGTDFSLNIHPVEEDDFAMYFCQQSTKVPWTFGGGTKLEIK
human monoclonal antibody R5.016 (human), sequence (heavy, as listed by the source, chain 1 of 2): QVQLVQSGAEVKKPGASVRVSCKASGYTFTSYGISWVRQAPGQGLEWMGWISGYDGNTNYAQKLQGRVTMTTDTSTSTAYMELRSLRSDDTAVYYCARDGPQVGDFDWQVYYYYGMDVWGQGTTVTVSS
human monoclonal antibody R5.016 (human), sequence (light, as listed by the source, chain 2 of 2): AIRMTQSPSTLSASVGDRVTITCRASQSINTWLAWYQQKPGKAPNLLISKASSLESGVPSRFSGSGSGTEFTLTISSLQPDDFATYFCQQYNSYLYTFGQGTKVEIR
human monoclonal antibody R5.034 (human), sequence (heavy, as listed by the source, chain 1 of 2): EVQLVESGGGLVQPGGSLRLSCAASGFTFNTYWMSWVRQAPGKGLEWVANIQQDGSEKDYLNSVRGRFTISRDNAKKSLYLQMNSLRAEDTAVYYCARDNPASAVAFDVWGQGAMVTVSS
human monoclonal antibody R5.034 (human), sequence (light, as listed by the source, chain 2 of 2): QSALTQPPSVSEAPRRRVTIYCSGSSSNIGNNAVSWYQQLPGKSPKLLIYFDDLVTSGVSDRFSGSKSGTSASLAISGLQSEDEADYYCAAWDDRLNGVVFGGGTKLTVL

Turning to “PfRH5 (from UniProt Q8IFM5 25-526) (natural protein)”, the pKd in assay [1] was 8.62; in assay [2], 10.03; in assay [3], 8.80.
